Results as given in a protein production outcome set (Wang et al. 2014).

Assay: label from the status in PepcDB records

Row | Sequence | protein production
1 | IRRKINANVYDKVVLYAPTWRGIHGKATLDIEKLKNDLEKLADQDCHIVFRGHHMIEKLVSEQNISGITIVPSEIDTNELLGAIDILITDYSSIAFDFFVMNRPVIYYAYDIEQYNNERGLYFPLNELPGTVCFNDVELLNTLSGYLRNEIYFDASKGIDKFCKNDDGSVCGKVIEWFFF | failed
2 | MSTSEDTLRTSPDTFDADSVTSKGAPQEHARQVSGMFGRIARWYDLLNHVLSGGLDLYWRYRLVRQVVPGPTGRVLDLAAGTLDVAREIHRQHPGMRVPALDFCEAMLRAGQPKLVDGVQDVIWPAVADGRRLPLADASVDCVTIAFGIRNIVPRREAFEEMLRVLVPGGRACILEFGTGKTPVWKGLYNFYLNTLLPLVGRCVSGDAGAYRYLADTIMSFPDADALAAEMHDAGFTRVYHLPLTSGIVRLHVGEKPL | failed
3 | MLARALFFVVLSTATFLFLWQFPSTGAQSIPHLDKLVHFGIFFVLALTFHRAFALSAKLSLLILVCYGFLIEIAQSYAPGRSADVYDWLADASGVVAYFILHHLLSKKSR | failed
4 | MKFRTLLVVNKVVVFAKLLSVLQKVEKTAFLILCSEADEEIRLVTKADAFNGLYTSALLRKSEFFEDYRIESKYHNLIGLEFQLSAFEDAIRASSNAAGVIMKLSKKEQACISFHIQTLTSNIIQDVPVRVITPTQIEELAEPNLPPCSGVVLSPLQKIAILIEKFRHVSQSIQLTLQSTQAAELHIKCHSETLEVETCIKGLKIVTLNSEESSSEIEQSTSASVDGRHLSKAMFAAYLIPQRAFCCKLSILNHGNIHWIH | failed
5 | MRVASDAGDAETLLAAVPANQRVAIVDARFVGHLHALRLGLTDPRFEAAALAGAVSAQPGARQALTRALARESSAATGGATVVMDNLAERITAALDADGVQVHRPDLGTLVAAVPADPQARNEVRQAVTAVDDEAVRLRTAVKSRDGFFTTHFISPYSRYLARWCARRGLTPNQVTTASLLTALVAAGCAATGTRAGFVAAGLLLLFSFVLDCADGQLARYSLQYSTLGAWLDATFDRAKEYAYYAGLALGAARGGDDVWALALGAMVLQSCRHIVDFSFNEANHDATANTSPTAALSDKLDSVGWTVWLRRMIVLPIGERWAMIAVLTALTTPRITFYALLIGCAFAATYTTAGRVLRSLTRKARRTDRAAQALADLTDSGPLAEFLTRFARRLRLRGPACVALVTGALVVLAAALAPYGSWWPVLAAVTYVLLSPVALLKPLKGALDWLVPPFYRAAEYGTVLVLAAKADVNGALPAAFGLVAAVAYHHYDTVYRIRGNAGAPPHWLVRAIGGHEGRTLLVTVLAALLVPTDFKVALTALAVAVALVVLVESIRFWVSSQAPAVHDEGEPA | failed
6 | MSGDAATDADAGRAGPGGVFGVGFRSLLRREILRFVRRPRNTFAPPAITNVLYFAVFGVILGQRIDDIAGFDYIVFLLPGLVVLGAISNAFENASFSIFHGRWNEYIHETLTAPLSYSSMVLAYVFAAALRGIIVGLIIVAVGLVFTTVPVNEPLYLAAFMVVVPLLFASLGVIGGLVAEDFDDLTVMNQFILRPLVFFGAVFYSLEILPPLYRTLSLLNPMVYMVNGVRYGFLGYQEVDPLASLAVLSGLTAAVIVLDIYLFKRGYGLID | failed
7 | MNIVIAGAGEVGTHLAKMLSQEEQNIVLIDPNPKRLELAAMRSELLPQVGNPLSPSDLLQANVKYADLFISVMPEEADNILACALASRLGAGKTLARINNNEFLKPDMAQYFRDMGVHTMIYPELLAAREIVSTIKNPWARQYVELFDGALVLVGVKVREGAHIVGKYLHELTRTGNKIFHIVAIKRDLETIIPKGGTQVLHGDIVFFATAQNHLDEVRKLAGKDNPPVHKVVIMGGSRIAIRSIEMIPRNIQVAIIEKDKEKSMRISAIAPTNVQVYNGDGRDSDILIEAGLDQTDVFIALTENSETNVLACLGAKRFGVFKTIAKEENIDYISLADRLDIGTLINKKLLAAGSIYRIFLGEDTSTVKCLTLANADVAELVAHRGAPVTKRPVKDLNIPEGITFGGMVRNGVPQMIHGDTVIEPYDHVVVFCLNTPLNILKDFFG | failed
8 | SSKVIIPKIVGHRGVGKEGLAPENTLRSFVLCMERNIPYIETDLRVCKTGEIVLFHGTPEGTIPFYKDGTSRIGDLSLEELKRLDVGGGHTIPSLEELFVAIEEQKFNLKLNLELKGEEWKRKESGDHQRLLLLVEKYHMQERVDYCSFHHEALAHLKALCPDVKITYLFNYMGQPTPLDFVEQACYGDANGVSMLFHYLTKEQVCTAHEKGLSVTVWMPWIFDDSEEDWKKCLELQVDLICSNYPFGLMNFLSNISE | not failed
9 | MAEGKPDEQLFQLLSGLLQQVESLTNTEEVELRSKIEALGLEVTKVPSKSAQHLNEVEIAKELDKLSAKLDDVDEMISSAIASDPQVQTLLSGTADVWMPVITAGAEERLNFTASLADDDDLSNKETTTDNTSSS | not failed
10 | MSTPLQGIKVLDFTGVQSGPSCTQMLAWFGADVIKIERPGVGDVTRHQLRDIPDIDALYFTMLNSNKRSIELNTKTAEGKEVMEKLIREADILVENFHPGAIDHMGFTWEHIQEINPRLIFGSIKGFDECSPYVNVKAYENVAQAAGGAASTTGFWDGPPLVSAAALGDSNTGMHLLIGLLAALLHREKTGRGQRVTMSMQDAVLNLCRVKLRDQQRLDKLGYLEEYPQYPNGTFGDAVPRGGNAGGGGQPGWILKCKGWETDPNAYIYFTIQEQNWENTCKAIGKPDWITDPAYSTAHARQPHIFDIFAEIEKYTVTIDKHEAVAYLTQFDIPCAPVLSMKEISLDPSLRQSGSVVEVEQPLRGKYLTVGCPMKFSAFTPDIKAAPLLGEHTAAVLQELGYSDDEIAAMKQNHAI | failed
11 | YDQVTRIIGVAKDITDQIEASESLRDSEQRYRMLAESISDVIFSTDSKLSLNYVSPSVHAVLGYDVEWIFQNGWQSTIANPQQLSGIYTLMDRVSKALDKPEQLAQLRSQVQTQLFLFDCLRADGRKIPIELRLVLVWDEHGAFEGVLGVGRDISQQRRAEKDLRMAATVFEHSTS | failed
12 | VEIRTGEFEDIAGITDIFNFYIEHTNARFEEFPFTLENREEWFSQFSRTTKYQIYVAVENGVLQGFACSQKYRAIPAFDDTVEVSVYLAQEAKGKGLGSKLYTQLFSSIRAYGVHRILSGVALPNDASVALHKRFGFREVGIFNEYAKKHGQYISSVWLEKALNVESAL | failed
13 | MSTQKQEQAFFGLVWLARLTVCLLTVGLALAIDSTATERHRADVRAKWQEKVDDLGLRLRATILQNTQTVWGLAANVAVQPDIGEERFQRLASVIFKLAPELLNIGLAPGFVIKHIYPLDGNEAALGLDLQAQSLSRDQMALLLESRRAVFSGPINLVQGGQGLAARIPIFENDTGRVWGVISTILDLDRLYTAIGLDSLPPEVVFALSTTGSGNIDKGLFFGEPDAAWQEPVSTTMAMPGFSWKLYAQPADGWPDHPDSPWLLRSLLGLVTLIIIAGTLWITTLILRDRQMQLRFWGLFELAPFGIALYDAISGELLQANPGFTRILDSKANNIGYFDDVRSLSGDKQRSEPSISNRLASQVRFTGVEGFFPMADGTLQPLMLHGLRLDLQGKESVIWIIVEDISQRKEAERLKSEFISTVSHELRTPLTSISGALSLLTTNAVGELSGKAQQLLKIAQRNSDQLGFLINDLLDIEKLIAGKMDFNVIEFPVSEAITESLENIQNYATEKNITLNAQELSTTTVKADKQRLAQALNNILSNAIKFSPVNGQIRIWTKLHGQGLRIYVQDEGPGIAPEFRERMFQKFSQADSSDRRSKGGTGLGLAITKELMARMEGDVDFTSEAGQGATFWLEVPAA | failed
14 | MERLTRWLLVMMAMLLAASGLVWFYNSNHLPVKQVSLKGNLVYSDKKTLGSLAKEYIHGNILRTDINGAQEAYRRYPWIASVMVRRRFPDTVEVVLTERKPVARWGDHALVDGEGNVFEARLDRPGMPVFRGAEGTSAEMLRRYDEFSTVLAKQGLGIKEMTYTARSAWIVVLDNGITVRLGRENEMKRLRLFTEAWQHLLRKNKNRLSYVDMRYKDGFSVRYASDGLPEKESEE | failed
15 | AGQVVHTETTEVVLTADPVTGFGIQLQGSVFATETLSSPPLISYIEADSPAERCGVLQIGDRVMAINGIPTEDSTFEEANQLLRDSSITSKVTLEIEFDVAESVIPSSG | not failed
16 | MRDALLGALDAGAVCVNVDLAHAGQQAKLEPDTPYGDALGVGAGRNWAHVNSIAYDAKDDSIILSSRHQGIVKIGRDKQVKWILAPSKGWNKQLASKLLKPVDDHGKPLTCDENGKCKDTDFDFTYTQHTAWLSSKGTLTVFDNGDGRGLEQPALPTMKYSRFVEYKIDEKKGTVQQVWEYGKERGYDFYSPITSVVEYQKDRDTMFGFGGSINLFDVGKPTVGKLNEIDYKTKEVKVEIDVLSDKPNQTHYRALLVHPTQMFKLEHHHHHH | not failed
17 | MAQVFNFSSGPAMLPAEVLKLAQQELCDWHGLGTSVMEISHRGKEFIQVAEEAEQDFRDLLNIPSNYKVLFCHGGGRGQFAGVPLNLLGDKTTADYVDAGYWAASAIKEAKKYCAPQIIDAKITVDGKRAVKPMREWQLSDNAAYLHYCPNETIDGIAIDETPDFGPEVVVTADFSSTILSAPLDVSRYGVIYAGAQKNIGPAGLTLVIVREDLLGKAHESCPSILDYTVLNDNDSMFNTPPTFAWYLSGLVFKWLKAQGGVAAMHKINQQKAELLYGVIDNSDFYRNDVAQANRSRMNVPFQLADNTLDKVFLEESFAAGLHALKGHRVVGGMRASIYNAMPIEGVKALTDFMIDFERRHG | not failed
18 | MNRHISFERLHNFRDLGGYTTADGRVVRWGRLFRSDSLGKLTGEEWERFLALGIGTVIDLRYPWEIDAKGRVPEHPAFTYHNLSIEHRPYDQAGLGPDVETGPFLAEKYMEVAHDGVKELRQVVEVIAAVATSTDESVVFHCASGKDRTGLVAALVLALLGVPESQIVEDFTLTELATERLLADWRADHPGQEPTWPGYGRAPADVMRLFLDALTHQHGSMADYARDLLRIDEGLIAALRRNLLEPAAEPELTFRRADHRDLPELVRLRDSAARWQIARGIDQWKPGQLGEDHFRARLADGEIWIATLGPTGPTAGAWELWWDDPAAWGPQPPSAGYVHRLMTDRRTAPPGTGRLMLAEAERRIAETGRTLCRLDCLASNPRLRQYYETAGYTVVGEQSSKDGGLGNTYAVTLLEKTVPEALTPRSTKPAR | failed
19 | MIDMFPMEKGEEQETYELIVRVFHKYVAPVYSENGVARFLGMLSPEGLSEMNNGKNSFVIVARDQSKIIGMISVINDSHIALFFVSPRYQGKGIGKNILDEAIKNCLNRNPELSAVTVSSSPNSKSFYEEAGFEVIGNEINEEGLRFTPMRKLLRQLEHHHHHH | failed
20 | MFARTAIAPPFAAMAAGRIPNTHDSDMAEARPDSLTRSRAAKPAGEGAAFSPLYRQIKELLVQSLDRGEWKPGELIPSEIDLAARFQVSQGTVRKAVDELAAEHLLLRRQGKGTFVATHHEARVRYRFLRLAPDEEGEGGRAESRILECRRLRAPAEIARALELRAGETVVTIRRQLSMNHMPTVIDDLWLPGTHFRGLTLELLTASKAPLYGLFESEFGVSMVRADEKLRAVAASPEIAPLLGVEPGRPLLQVDRISYTYGDRPMEVRRGLYLTDHYHYRNSLN | failed
21 | MTTIPSTAEAKLEMLTTINRAIAGSRPEALPPYPVPAPLSRAEILHQFEDRILDYGAAYTHVSAAELPGAIAKALGNARRVIVPAGIPAPWLTVGMDVLRDEPPLSHAELDRADAVLTGCAVAISETGTIILDHRADQGRRALSLIPDFHICVVREDQIVQTVREGVEAVAASVREGRPLTWLSGGSATSDIELVRVEGVHGPRRLQVIVVG | not failed
